Source: the RNAGym collection of RNA variant scans (doi:10.7554/elife.80360)

B1: Twister Ribozyme (parent)
chain: AACACUGCCAAUGCCGGUCCCAAGCCCGGAUAAAAGUGGAGGGGGCGG

Variants of: B1
Test: self-cleavage, relative activity (ratio to wild type); higher = more cleavage; co-transcriptional

Point of comparison: CACACUGCCAAUGCCGGGCCCAAGCCCGGAUAAAAGUGGAGGGGGCGG, self-cleavage 0.136. Against it:
- GACACUGCCAAUGCUGGUCCCAAGCCCGGAUAAAAGUGGAGGGGGCGG — higher, 0.405
- UACACUGCAAAUGCCGGUCCCAAGCCCGGAUAAAAGUGGAGGGGGCGG — lower, 0.0518
- GACACUGCCAAUGCCGGUCCCAAGCCCGGAUAAAUGUGGAGGGGGCGG — higher, 0.447
- GACACUGCCAAUGCCGGUCCCAAGCCCGGAUAAAGGUGGAGGGGGCGG — higher, 0.326
- GACACUGCCAAUGCCGGUCCCAAGCCCGUAUAAAAGUGGAGGGGGCGG — higher, 0.358
- GACACUGCCAAUGCCGGACCCAAGCCCGGAUAAAAGUGGAGGGGGCGG — higher, 0.509
- GACACUGCCAAUGCCGGGCCCAAGCCCGGAUAAAAGUGGAGGGGGCGG — the same, 0.136
- GACACUGCCAAUGCCGGCCCCAAGCCCGGAUAAAAGUGGAGGGGGCGG — higher, 0.335
- CACACUGCCAAUGCCGGUCCCAAGCCCGGAUAAAAGUGGAGGCGGCGG — higher, 0.141
- GACACUGCCAAUGCCGGUCCCACGCCCGGAUAAAAGUGGAGGGGGCGG — higher, 0.202
- GACACUGCCAAUGCCGGUCCCAAGCCCGGAUAAAAGAGGAGGGGGCGG — higher, 0.307
- GACACUGCCAAUGCCGGUCCCAAGCCCGGAUAAAAGGGGAGGGGGCGG — higher, 0.295
- GACAGUGCCAAUGCCGGUCCCAAGCCCGGAUAAAAGUGGAGGGGGCGG — higher, 0.172
- GACACUGCCAAUGCCGCUCCCAAGCCCGGAUAAAAGUGGAGGGGGCGG — lower, 0.128
- GACACUGCCAAUGCCGUUCCCAAGCCCGGAUAAAAGUGGAGGGGGCGG — higher, 0.221
- GACACUGCCAAUGCCGGUCCCAAGCCCCGAUAAAAGUGGAGGGGGCGG — higher, 0.466
- GACACUGCCAAUGCCGGUCCCAAGCCCAGAUAAAAGUGGAGGGGGCGG — higher, 0.406
- GACACUGCCAAUGCCGGUCCCAAGCCCGGAUAAAAGUGGAAGGGGCGG — higher, 0.176
- GACACUGCCAAUGCCGGUCCCAAGCCCGGAUAAAAGUGGACGGGGCGG — higher, 0.186
- UACACUGCCAAUGCCGGUCCCAAGCCCGGCUAAAAGUGGAGGGGGCGG — lower, 0.0658
- UACACUGCCAAUGCCGGUCCCAAGCCCGGGUAAAAGUGGAGGGGGCGG — lower, 0.074
- GACACUGCCAAUGCCGGUCCCAAGCCCGGAUAAAAGUGGAGGGGGCGC — higher, 0.524
- GACACUGCCAAUGCCGGUCCCAAGCCCGGAUAAAAGUGGAGAGGGCGG — higher, 0.215
- GACACUGCCAAUGCCGGUCCCAAGCCCGGAUAAAAGUGGAGCGGGCGG — higher, 0.251
- GACACUGCCAAUGCCGGUCCCAAGCCCGGAUAAAAGUGGAGUGGGCGG — higher, 0.187
- UACACUGCCAAUGCCGGUCCCAAGCCCGGAUAAAAGUGGCGGGGGCGG — lower, 0.0671
- UACACUGCCAAUGCCGGUCCCAAGCCCGGAUAGAAGUGGAGGGGGCGG — lower, 0.0708
- GACACUGGCAAUGCCGGUCCCAAGCCCGGAUAAAAGUGGAGGGGGCGG — higher, 0.262
- GACACUGUCAAUGCCGGUCCCAAGCCCGGAUAAAAGUGGAGGGGGCGG — higher, 0.245
- GACACUGCCAAUGCCGGUCCCAAGCACGGAUAAAAGUGGAGGGGGCGG — higher, 0.244
- GACACUGCCAAUGCCGGUCCCAAGCUCGGAUAAAAGUGGAGGGGGCGG — higher, 0.188
- GACACUGCCAAUGCCGGUCCCAAGCGCGGAUAAAAGUGGAGGGGGCGG — higher, 0.334
- GACACUGCCAAUGCCGGUCUCAAGCCCGGAUAAAAGUGGAGGGGGCGG — higher, 0.35
- GACACUGCCAAUGCCGGUCACAAGCCCGGAUAAAAGUGGAGGGGGCGG — higher, 0.273
- GGCACUGCCAAUGCCGGUCCCAAGCCCGGAUAAAAGUGGAGGGGGCGG — higher, 1.19
- GACACUGCCGAUGCCGGUCCCAAGCCCGGAUAAAAGUGGAGGGGGCGG — higher, 0.438
- GACACUGCCUAUGCCGGUCCCAAGCCCGGAUAAAAGUGGAGGGGGCGG — higher, 0.428
- GACACUGCCAAUGCCGGUCCCAAGCCCGGAUAAAAGUGCAGGGGGCGG — lower, 0.122
- GACACUGCCAAUGCCGGUCCCAAGCCCGGAUAAAAGUGAAGGGGGCGG — higher, 0.206
- CACACUGCCAAUGCCGGUCCCAAGCCCGGAGAAAAGUGGAGGGGGCGG — higher, 0.144
- CACACUGCCAAUGCCGGUCCCAAGCCCGGAAAAAAGUGGAGGGGGCGG — higher, 0.168
- CACACUGCCAAUGCCGGUCCCAAGCCCGGAUAAAAGUGGAGGGGCCGG — higher, 0.176
- CACACUGCCAAUGCCGGUCCCAAGCCCGGAUAAAAGUGGAGGGGACGG — higher, 0.184
- CACACUGCCAAUGCCGGUCCCAAGCCCGGAUAAAAGUGGAGGGGUCGG — higher, 0.22
- GACACUGCCAAUUCCGGUCCCAAGCCCGGAUAAAAGUGGAGGGGGCGG — lower, 0.129
- GACACUGCCAAUCCCGGUCCCAAGCCCGGAUAAAAGUGGAGGGGGCGG — higher, 0.223
- UACACUGCCAAUGCCGGUCCCAAGCCCGGAUUAAAGUGGAGGGGGCGG — lower, 0.0613
- UACACUGCCAAUGCCGGUCCCAAGCCCGGAUGAAAGUGGAGGGGGCGG — lower, 0.0499
- UACACUGCCAAUGCCGGUCCCAAGCCCGGAUCAAAGUGGAGGGGGCGG — lower, 0.057
- GAUACUGCCAAUGCCGGUCCCAAGCCCGGAUAAAAGUGGAGGGGGCGG — higher, 0.294
- GAGACUGCCAAUGCCGGUCCCAAGCCCGGAUAAAAGUGGAGGGGGCGG — higher, 0.274
- UACACUGCCAAUGCCGGUCCCUAGCCCGGAUAAAAGUGGAGGGGGCGG — lower, 0.0726
- UACACUGCCAAUGCCGGUCCCGAGCCCGGAUAAAAGUGGAGGGGGCGG — lower, 0.0451
